Laboratory results from article PMC3394778, “Ubiquitylation of Terminal Deoxynucleotidyltransferase Inhibits Its Activity” (PLoS ONE, 2012).

B1: GST-TdT (terminal deoxynucleotidyltransferase) (natural protein)
chain: MDPLCTASSGPRKKRPRQVGASMASPPHDIKFQNLVLFILEKKMGTTRRNFLMELARRKGFRVENELSDSVTHIVAENNSGSEVLEWLQVQNIRASSQLELLDVSWLIESMGAGKPVEITGKHQLVVRTDYSATPNPGFQKTPPLAVKKISQYACQRKTTLNNYNHIFTDAFEILAENSEFKENEVSYVTFMRAASVLKSLPFTIISMKDTEGIPCLGDKVKCIIEEIIEDGESSEVKAVLNDERYQSFKLFTSVFGVGLKTSEKWFRMGFRSLSKIMSDKTLKFTKMQKAGFLYYEDLVSCVTRAEAEAVGVLVKEAVWAFLPDAFVTMTGGFRRGKKIGHDVDFLITSPGSAEDEEQLLPKVINLWEKKGLLLYYDLVESTFEKFKLPSRQVDTLDHFQKCFLILKLHHQRVDSSKSNQQEGKTWKAIRVDLVMCPYENRAFALLGWTGSRQFERDIRRYATHERKMMLDNHALYDKTKRVFLKAESEEEIFAHLGLDYIEPWERNA
notes: Terminal deoxynucleotidyltransferase (TdT), bovine; cDNA isolated from a bovine thymus cDNA library; wild type; source: E. coli BL21(DE3)pLysS Rosetta2, purified (Glutathione Sepharose 4B)

Legend:
Settings in all cases: both partners purified
His-UbcH5b = biological target: T1, His-UbcH5b (human, UniProt P62837 1-147); test: pull-down; GST-TdT coupled to Glutathione Sepharose 4B as bait, His-tagged proteins added for 1 h (coupling at 4°C); binding buffer A: 50 mM Tris-HCl pH 7.4, 150 mM NaCl, 2.5 mM MgCl2, 1% TritonX-100, 10% glycerol, 1 mM DTT; immunoblot with anti-His; Figure 2A with or without His-Ub
T1 construct: UbcH5b (E2), human; cDNA amplified from a human thymus cDNA library; also called UbcH5 isoforms; source: E. coli BL21(DE3), purified (Ni Sepharose 6 Fast Flow)

GST-TdT (terminal …) = biological target: B1; test: as above
His-TdT del 2 (150–509) = biological target: T2, His-TdT del 2 (150–509) (bovine, UniProt P06526 150-509); test: pull-down; GST-UbcH5a coupled to Glutathione Sepharose 4B as bait, His-TdT deletion mutants as prey; binding buffer A: 50 mM Tris-HCl pH 7.4, 150 mM NaCl, 2.5 mM MgCl2, 1% TritonX-100, 10% glycerol, 1 mM DTT; immunoblot with anti-His
T2 construct: also called C-terminal region of TdT; source: E. coli BL21(DE3)pLysS Rosetta2, purified (Ni Sepharose 6 Fast Flow)

| binding result (GST-TdT (terminal …)) | Binder | also measured |
| --- | --- | --- |
|  | B1 | binding result (His-UbcH5b): binds |
| binds | His-UbcH5a (wild type) (enzyme, UbcH5a (ubiquitin-conjugating enzyme E2), human; cDNA amplified from a human thymus cDNA library; also called His-wtUbcH5a; wtUbcH5a; source: E. coli BL21(DE3), purified (Ni Sepharose 6 Fast Flow)) not shown |  |
| binds | Ubc13/MMS2 (His-UbcH13 with His-MMS2) (complex, UbcH13 (Ubc13, E2), human; cDNA amplified from a human thymus cDNA library; MMS2, E2 variant that lacks the active cysteine, human; The two chains were expressed and purified separately; also called UbcH13-MMS2; source: E. coli BL21(DE3), each purified (Ni Sepharose 6 Fast Flow)) chain 1: MAGLPRRIIKETQRLLAEPVPGIKAEPDESNARYFHVVIAGPQDSPFEGGTFKLELFLPEEYPMAAPKVRFMTKIYHPNVDKLGRICLDILKDKWSPALQIRTVLLSIQALLSAPNPDDPLANDVAEQWKTNEAQAIETARAWTRLYAMNNI chain 2: not shown |  |
|  | GST-UbcH5a (enzyme, UbcH5a (ubiquitin-conjugating enzyme E2), human; cDNA amplified from a human thymus cDNA library; also called GST-Ubc5a; source: E. coli BL21(DE3), purified (Glutathione Sepharose 4B)) not shown | binding result (His-TdT del 2 (150–509)): binds |
| binds | His-UbcH6 (enzyme, human, UniProt P51965 1-193, looked up, UbcH6 (E2), human; cDNA amplified from a human thymus cDNA library; source: E. coli BL21(DE3), purified (Ni Sepharose 6 Fast Flow)) MSDDDSRASTSSSSSSSSNQQTEKETNTPKKKESKVSMSKNSKLLSTSAKRIQKELADITLDPPPNCSAGPKGDNIYEWRSTILGPPGSVYEGGVFFLDITFTPEYPFKPPKVTFRTRIYHCNINSQGVICLDILKDNWSPALTISKVLLSICSLLTDCNPADPLVGSIATQYMTNRAEHDRMARQWTKRYAT |  |
| binds | His-UbcH10 (enzyme, human, UniProt O00762 1-179, looked up, UbcH10 (E2), human; cDNA amplified from a human thymus cDNA library; source: E. coli BL21(DE3), purified (Ni Sepharose 6 Fast Flow)) MASQNRDPAATSVAAARKGAEPSGGAARGPVGKRLQQELMTLMMSGDKGISAFPESDNLFKWVGTIHGAAGTVYEDLRYKLSLEFPSGYPYNAPTVKFLTPCYHPNVDTQGNICLDILKEKWSALYDVRTILLSIQSLLGEPNIDSPLNTHAAELWKNPTAFKKYLQETYSKQVTSQEP |  |
